Reference: US20140363428A1 (Chugai, published 2014)
Numbering of substitutions follows the chain as printed. Names may count otherwise.

Columns and labels:
[1] = biological target: T1, soluble human FcRn (heterodimer of FcRn alpha chain and beta2-microglobulin) (human, UniProt P55899 24-297; P61769 21-119); test: SPR (Biacore), hFcRn, measured in multiplicates; n=12
T1 construct: Signal regions are part of the expressed constructs; also called hFcRn

[2] = biological target: T2, soluble human FcRn (human, UniProt P55899 24-297; P61769 21-119); test: SPR (Biacore), pH 6.0
T2 construct: Heterodimer of alpha chain and beta2-microglobulin; also called hFcRn

[3] = biological target: T1, soluble human FcRn (heterodimer of FcRn …); test: SPR (Biacore), hFcRn, measured in multiplicates; n=7
[4] = biological target: T2, soluble human FcRn; test: SPR (Biacore), pH 7.0
[5] = biological target: T2, soluble human FcRn; test: SPR (Biacore), pH 7.0; remark: listed apart in the source
[6] = biological target: T2, soluble human FcRn; test: SPR (Biacore), pH 6.0; Table 26 series (4-5), a different experiment from Table 25; pH 6.0
[7] = biological target: T2, soluble human FcRn; test: SPR (Biacore), pH 6.0; pH 6.0 (acidic pH, not neutral pH)
[8] = biological target: T2, soluble human FcRn; test: SPR (Biacore), pH 7.0; remark: listed apart in the source
[9] = biological target: T3, biotinylated GPC3 peptide (chemically-synthetized peptide having a human glypican 3 protein-derived sequence, … (human, C-terminal Lys is biotinylated)); test: SPR (Biacore T200), capture of human IgE on Sensor chip SA carrying the biotinylated GPC3 peptide, 37 degrees C
T3 construct: Synthetic peptide immobilized on Sensor chip SA through biotin-streptavidin
T3 peptide: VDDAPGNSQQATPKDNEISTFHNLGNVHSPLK

[10] = biological target: T4, human IgE (human); test: SPR Biacore T200, 37 C; ratio of KD, pH dependency
T4 construct: Recombinant antigen; variable region derived from an anti-human glypican3 antibody; also called hIgE
Protocol: (§1) Human IgE was immobilized onto the chip by injecting it at an appropriate concentration so as to be trapped by the biotinylated GPC3 peptide. […] Then, 10 mmol/L glycine-HCl (pH 1.5) was injected to regenerate the sensor chip. The interaction was always measured at 37 degrees C. The measurement result was analyzed by curve fitting using Biacore T200 Evaluation Software (GE Healthcare) to calculate the association rate constant ka (1/Ms) and dissociation rate constant kd (1/s). The dissociation constant KD (M) was calculated from the above-described constants.

[11] = biological target: T4, human IgE; test: SPR Biacore T200, 37 C, hIgE captured via biotinylated GPC3 peptide, Ab analyte; pH 7.4, 1.2 mM Ca
Protocol: as §1

[12] = biological target: T4, human IgE; test: SPR Biacore T200, 37 C; pH 5.8, 1.2 mM Ca
Protocol: as §1

[13] = biological target: T4, human IgE; test: SPR Biacore T200, 37 C; ratio of KD, pH/Ca dependency
Protocol: as §1

[14] = biological target: T4, human IgE; test: SPR Biacore T200, 37 C; pH 5.8, 3 microM Ca
Protocol: as §1

T2 sequence (P55899 24-297 limits assumed, chain 1 of 2): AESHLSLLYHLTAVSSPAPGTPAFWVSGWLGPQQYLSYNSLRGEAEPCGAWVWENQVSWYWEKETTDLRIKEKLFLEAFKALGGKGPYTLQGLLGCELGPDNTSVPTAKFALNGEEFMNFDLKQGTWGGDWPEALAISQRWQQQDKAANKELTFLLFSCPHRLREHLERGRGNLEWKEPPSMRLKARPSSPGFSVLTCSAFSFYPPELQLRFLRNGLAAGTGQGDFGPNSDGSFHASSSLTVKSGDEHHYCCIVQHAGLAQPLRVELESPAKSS
T2 sequence (P61769 21-119 limits assumed, chain 2 of 2): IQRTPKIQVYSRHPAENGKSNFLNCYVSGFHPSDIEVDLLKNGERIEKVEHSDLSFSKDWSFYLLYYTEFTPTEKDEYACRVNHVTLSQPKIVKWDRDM
T1 sequence (P55899 24-297 limits assumed, chain 1 of 2): as the sequence (P55899 24-297 limits assumed, chain 1 of 2) above
T1 sequence (P61769 21-119 limits assumed, chain 2 of 2): as the sequence (P61769 21-119 limits assumed, chain 2 of 2) above

B1: Fv-4-F11 (antibody, human IgG1, kappa)
heavy: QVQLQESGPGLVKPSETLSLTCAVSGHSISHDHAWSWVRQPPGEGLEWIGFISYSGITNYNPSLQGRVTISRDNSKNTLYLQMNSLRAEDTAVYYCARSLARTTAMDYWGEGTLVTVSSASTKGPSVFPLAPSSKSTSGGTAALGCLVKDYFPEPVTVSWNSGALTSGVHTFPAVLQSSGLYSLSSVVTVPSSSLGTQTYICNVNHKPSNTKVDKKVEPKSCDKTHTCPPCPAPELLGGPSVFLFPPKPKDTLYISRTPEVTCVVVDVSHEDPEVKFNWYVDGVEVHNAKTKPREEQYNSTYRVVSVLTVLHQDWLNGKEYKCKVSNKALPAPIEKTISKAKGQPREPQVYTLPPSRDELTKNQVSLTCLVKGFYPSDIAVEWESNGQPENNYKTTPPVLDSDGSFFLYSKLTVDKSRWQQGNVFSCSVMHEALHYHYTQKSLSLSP
light: DIQMTQSPSSLSASVGDSVTITCQASTDISSHLNWYQQKPGKAPELLIYYGSHLLSGVPSRFSGSGSGTDFTFTISSLEAEDAATYYCGQGNRLPYTFGQGTKVEIERTVAAPSVFIFPPSDEQLKSGTASVVCLLNNFYPREAKVQWKVDNALQSGNSQESVTEQDSKDSTYSLSSTLTLSKADYEKHKVYACEVTHQGLSSPVTKSFNRGEC
notes: VH3-F11 (M252Y/N434Y) and VL3-CK
Which Kd [1] does the source give for B1 here?
Its Kd is 310 nM.

B2: Fv-4-F1172 (antibody)
heavy: QVQLQESGPGLVKPSETLSLTCAVSGHSISHDHAWSWVRQPPGEGLEWIGFISYSGITNYNPSLQGRVTISRDNSKNTLYLQMNSLRAEDTAVYYCARSLARTTAMDYWGEGTLVTVSSASTKGPSVFPLAPSSKSTSGGTAALGCLVKDYFPEPVTVSWNSGALTSGVHTFPAVLQSSGLYSLSSVVTVPSSSLGTQTYICNVNHKPSNTKVDKKVEPKSCDKTHTCPPCPAPELLGGPSVFLFPPKPKDTLMISRTPEVTCVVVDVSHEDPEVKFNWYVDGVEVHNAKTKPREEQYNSTYRVVSVLTVLHQDWLNGKEYKCKVSNKALPAPIEKTISKAKGQPREPQVYTLPPSRDELTKNQVSLTCLVKGFYPSDIAVEWESNGQPENNYKTTPPVLDSDGSFFLYSKLTVDKSRWQQGNVFSCSVMHEALHHHYTRKELSLSP
light: B1 light
For B2, which Kd [2] is on record?
The Kd was 400 nM.

B3: Fv-4-F652 (antibody, human IgG1, kappa)
heavy: B2 heavy with P240D, M254Y, H436Y, R440Q, E442S
light: B1 light
notes: VH3-F652 (P238D/M252Y/N434Y) and VL3-CK
B3 was tested. Which Kd [3] did it give?
The Kd was 240 nM.

B4: Fv-4-F1167 (antibody, human IgG1, kappa)
heavy: B2 heavy with M254Y, S256T, T258E, S426N, H436N, R440Q, E442S
light: B1 light
B4 was tested. Which Kd [2] did it give?
Its Kd is 250 nM.

B5: Fv-4-N434H (antibody, human IgG1, kappa)
heavy: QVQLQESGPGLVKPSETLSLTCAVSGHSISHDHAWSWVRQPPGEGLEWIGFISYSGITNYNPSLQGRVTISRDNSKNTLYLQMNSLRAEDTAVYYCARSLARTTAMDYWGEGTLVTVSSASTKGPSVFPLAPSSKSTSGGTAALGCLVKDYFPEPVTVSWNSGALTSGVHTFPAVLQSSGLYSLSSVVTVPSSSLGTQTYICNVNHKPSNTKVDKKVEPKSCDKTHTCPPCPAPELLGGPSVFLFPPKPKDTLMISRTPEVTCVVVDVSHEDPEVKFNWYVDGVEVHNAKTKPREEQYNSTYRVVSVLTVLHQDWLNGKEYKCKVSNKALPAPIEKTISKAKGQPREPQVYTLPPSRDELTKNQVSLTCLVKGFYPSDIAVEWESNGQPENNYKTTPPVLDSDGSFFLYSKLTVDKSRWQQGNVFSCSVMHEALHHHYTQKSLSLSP
light: B1 light
With B5 as the binder, how does the Kd [2] read?
Its Kd is 430 nM.

B6: Fv-4-F1115 (antibody, human IgG1, kappa)
heavy: B2 heavy with M254Y, S426N, H436Y, Y438V, R440Q, E442S
light: B1 light
With B6 as the binder, how does the Kd [4] read?
The Kd was 130 nM.

B7: Fv-4-F1291 (antibody, human IgG1, kappa)
heavy: B2 heavy with L237R, S241K, M254Y, H435D, H436Y, Y438V, R440Q, E442S
light: B1 light
How did the Kd [5] turn out when B7 was run?
Its Kd is 150 nM.

B8: Fv-4-F1173 (antibody, human IgG1, kappa)
heavy: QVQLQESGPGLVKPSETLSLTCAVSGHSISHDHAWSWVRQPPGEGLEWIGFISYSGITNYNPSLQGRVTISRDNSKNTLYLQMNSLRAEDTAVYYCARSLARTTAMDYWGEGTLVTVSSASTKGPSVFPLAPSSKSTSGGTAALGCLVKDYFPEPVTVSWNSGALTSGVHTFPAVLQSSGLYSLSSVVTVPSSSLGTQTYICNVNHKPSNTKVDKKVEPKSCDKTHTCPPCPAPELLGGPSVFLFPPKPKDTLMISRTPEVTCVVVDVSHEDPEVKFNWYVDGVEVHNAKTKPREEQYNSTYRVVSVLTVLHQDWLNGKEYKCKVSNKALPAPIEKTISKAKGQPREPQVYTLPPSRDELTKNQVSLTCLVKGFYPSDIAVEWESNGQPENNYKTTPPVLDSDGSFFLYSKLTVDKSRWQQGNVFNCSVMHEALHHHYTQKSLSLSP
light: B1 light
Which Kd [2] does the source give for B8 here?
Its Kd is 530 nM.

B9: Fv-4-F1171 (antibody, human IgG1, kappa)
heavy: B2 heavy with S426N, M430L, H436S, R440Q, E442S
light: B1 light
B9 was tested. Which Kd [2] did it give?
Its Kd is 240 nM.

B10: Fv-4-F890 (antibody, human IgG1, kappa)
heavy: B2 heavy with M254Y, H436Y, Y438V, R440Q, E442S
light: B1 light
notes: VH3-F890 (M252Y/N434Y/Y436V) and VL3-CK; also called Fv-4-890
For B10, which Kd [1] is on record?
The Kd was 110 nM.

B11: Fv-4-LS (antibody, human IgG1, kappa)
heavy: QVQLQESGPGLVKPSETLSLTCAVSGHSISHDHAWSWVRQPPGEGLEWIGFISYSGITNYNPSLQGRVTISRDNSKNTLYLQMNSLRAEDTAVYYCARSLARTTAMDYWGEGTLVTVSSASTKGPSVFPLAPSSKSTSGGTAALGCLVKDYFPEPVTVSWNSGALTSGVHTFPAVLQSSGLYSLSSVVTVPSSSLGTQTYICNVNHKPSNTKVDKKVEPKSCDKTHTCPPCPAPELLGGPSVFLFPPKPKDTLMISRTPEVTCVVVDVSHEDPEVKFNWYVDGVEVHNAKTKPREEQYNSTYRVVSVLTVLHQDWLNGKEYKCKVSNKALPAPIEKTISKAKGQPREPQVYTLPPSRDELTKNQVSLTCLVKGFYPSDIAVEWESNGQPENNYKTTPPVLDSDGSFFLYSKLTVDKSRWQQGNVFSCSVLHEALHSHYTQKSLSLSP
light: B1 light
notes: also called F22
What does the source list for B11?
Kd [2]: 160 nM; Kd [6]: 71 nM

B12: Fv-4-YTE (antibody, human IgG1, kappa)
heavy: B2 heavy with M254Y, S256T, T258E, H436N, R440Q, E442S
light: B1 light
Which Kd [7] does the source give for B12 here?
The Kd was 210 nM.

B13: Fv-4-F890 (antibody, human IgG1, kappa)
heavy: B2 heavy with M254Y, H436Y, Y438V, R440Q, E442S
light: B1 light
notes: M252Y/N434Y/Y436V (EU)
What does the source list for B13?
Kd [4]: 110 nM; Kd [8]: 107 nM

B14: Fv-4-F1323 (antibody)
heavy: B2 heavy with L237R, S241K, M254Y, S256T, H435D, H436Y, Y438V, R440K
light: B1 light
B14 was tested. Which Kd [5] did it give?
Its Kd is 150 nM.

B15: Fv-4-F1166 (antibody)
heavy: B2 heavy with M254Y, S256T, T258E, H436N
light: B1 light
How did the Kd [2] turn out when B15 was run?
The Kd was 210 nM.

B16: Fv-4-F1340 (antibody)
heavy: B2 heavy with L237R, S241K, M254Y, S256T, T258E, H436Y, Y438V, R440K
light: B1 light
B16 was tested. Which Kd [5] did it give?
The Kd was 56 nM.

B17: Fv-4-F1321 (antibody)
heavy: B2 heavy with L237R, S241K, M254Y, S256T, H436Y, Y438V, R440K
light: B1 light
With B17 as the binder, how does the Kd [5] read?
Its Kd is 100 nM.

B18: human IgE (recombinant; variable region derived from an anti-human glypican3 antibody) (other)
heavy: QVQLVQSGAEVKKPGASVKVSCKASGYTFTDYEMHWVRQAPGQGLEWMGALDPKTGDTAYSQKFKGRVTLTADKSTSTAYMELSSLTSEDTAVYYCTRFYSYTYWGQGTLVTVSSASTQSPSVFPLTRCCKNIPSNATSVTLGCLATGYFPEPVMVTWDTGSLNGTTMTLPATTLTLSGHYATISLLTVSGAWAKQMFTCRVAHTPSSTDWVDNKTFSVCSRDFTPPTVKILQSSCDGGGHFPPTIQLLCLVSGYTPGTINITWLEDGQVMDVDLSTASTTQEGELASTQSELTLSQKHWLSDRTYTCQVTYQGHTFEDSTKKCADSNPRGVSAYLSRPSPFDLFIRKSPTITCLVVDLAPSKGTVNLTWSRASGKPVNHSTRKEEKQRNGTLTVTSTLPVGTRDWIEGETYQCRVTHPHLPRALMRSTTKTSGPRAAPEVYAFATPEWPGSRDKRTLACLIQNFMPEDISVQWLHNEVQLPDARHSTTQPRKTKGSGFFVFSRLEVTRAEWEQKDEFICRAVHEAASPSQTVQRAVSVNPGK
light: DVVMTQSPLSLPVTPGEPASISCRSSQSLVHSNRNTYLHWYLQKPGQSPQLLIYKVSNRFSGVPDRFSGSGSGTDFTLKISRVEAEDVGVYYCSQNTHVPPTFGQGTKLEIKRTVAAPSVFIFPPSDEQLKSGTASVVCLLNNFYPREAKVQWKVDNALQSGNSQESVTEQDSKDSTYSLSSTLTLSKADYEKHKVYACEVTHQGLSSPVTKSFNRGEC
notes: Used as antigen; also called hIgE
Does B18 bind [9]?
Result: binds

B19: clone 278 (antibody, human IgG1, kappa, V domains shown)
VH: QSLEESGGRLVTPGTPLTLTCTASGFSLSSYHMSWVRQAPGKGLEWIGVINSAGNTYYASWAKGRFTVSKTSTTVDLNLTSLTTEDTATYFCARYVFSSGSHDIWGPGTLVTVSS
VL: AYDMTQTPASVEVAVGGTVTIKCQASQSIGSWLAWYQQKPGQPPKELIYGTSTLESGVPSRFIGSGSGTEFTLTISGVECADAATYYCQQGYSEDNIDNAFGGGTEVVVKR
notes: human IgG1 heavy chain constant region and human light chain constant region
B19 was tested. Which “KD (pH 5.8, 1.2 mM Ca)/KD (pH 7.4, 1.2 mM Ca)” value [10] did it give?
The value was 842.

And the Kd [11]?
Its Kd is 2.4 nM.

What about the koff [11] of the same binder?
Its koff is 0.0036 s⁻¹.

And the kon [11]?
The kon was 1.5e+06 M⁻¹ s⁻¹.

And the Kd [12]?
Its Kd is 2000 nM.

And the koff [12]?
Its koff is 0.23 s⁻¹.

What about the kon [12] of the same binder?
The kon was 120000 M⁻¹ s⁻¹.

What about the “KD (pH 5.8, 3 microM Ca)/KD (pH 7.4, 1.2 mM Ca)” value [13] of the same binder?
Its value is 1640.

What about the Kd [14] of the same binder?
Its Kd is 3900 nM.

What about the koff [14] of the same binder?
Its koff is 0.24 s⁻¹.

What about the kon [14] of the same binder?
Its kon is 62000 M⁻¹ s⁻¹.
